{"source": "patent US10174358", "target": "Cy5-EF-Tu E348C (AV) C137A,C255V,E348C (Escherichia coli) (UniProt P0CE48)", "details": "native tRNA modifications; 3'-aminoacylated with Phe; Cy3 on acp3U47; FRET titration; GTP form, 100 uM GTP, 8 mM Mg, 25 C", "data": [{"substance": "Phe-tRNAPhe(Cy3)", "values": [{"measurement": "Kd", "value": 11, "unit": "nM"}]}]}
